Two molecules from patent US20180118814A1 (IGM BIOSCIENCES, published 2018) can be followed below.

A word on the EC50: it is the concentration giving half of the maximal effect. Read a high EC50 as lower potency in that assay.

The assay addresses T1, HBsAg (Prospec HBS-872) (hepatitis B virus).
T1 chain: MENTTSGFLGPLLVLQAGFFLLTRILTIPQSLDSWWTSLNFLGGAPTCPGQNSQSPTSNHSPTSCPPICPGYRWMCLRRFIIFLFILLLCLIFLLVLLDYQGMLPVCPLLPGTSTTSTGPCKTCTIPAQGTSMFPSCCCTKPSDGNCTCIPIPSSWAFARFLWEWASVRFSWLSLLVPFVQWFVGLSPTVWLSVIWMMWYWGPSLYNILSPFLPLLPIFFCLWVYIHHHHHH
The assay can be described thus: ELISA, plate coated with HBsAg (Prospec HBS-872), anti-human lambda-HRP detection, weight concentrations.

B1: HBV23MJ (antibody)
heavy: EVQVLESGGGLVQPGGSLRLSCAASGFRFSSYAMSWVRQAPGKGLEWVSGISGTGENTYYADSVKGRFTISRDNSKNTLYVQMNSLRAEDTAVYYCAKDAILGSGHPWYFHVWGRGTLVTVSSGSASAPTLFPLVSCENSPSDTSSVAVGCLAQDFLPDSITFSWKYKNNSDISSTRGFPSVLRGGKYAATSQVLLPSKDVMQGTDEHVVCKVQHPNGNKEKNVPLPVIAELPPKVSVFVPPRDGFFGNPRKSKLICQATGFSPRQIQVSWLREGKQVGSGVTTDQVQAEAKESGPTTYKVTSTLTIKESDWLSQSMFTCRVDHRGLTFQQNASSMCVPDQDTAIRVFAIPPSFASIFLTKSTKLTCLVTDLTTYDSVTISWTRQNGEAVKTHTNISESHPNATFSAVGEASICEDDWNSGERFTCTVTHTDLPSPLKQTISRPKGVALHRPDVYLLPPAREQLNLRESATITCLVTGFSPADVFVQWMQRGQPLSPEKYVTSAPMPEPQAPGRYFAHSILTVSEEEWNTGETYTCVVAHEALPNRVTERTVDKSTGKPTLYNVSLVMSDTAGTCY
light: SYVLTQPPSVSVAPGQTARMTCGGNNIGSESVHWFQQKPGQAPVLVVYDDSDRPSGIPERFSGSNSGNTATLTISRVEAGDEADYYCQVWDSSSDHAVFGGGTQLTVLGQPKAAPSVTLFPPSSEELQANKATLVCLISDFYPGAVTVAWKADSSPVKAGVETTTPSKQSNNKYAASSYLSLTPEQWKSHRSYSCQVTHEGSTVEKTVAPTECS
chain: not shown
notes: Human IgM with human J-chain; also called HBV23 anti-HBsAg IgM+human J-chain
With B1, a half-maximal effect (EC50) was put at 0.064 µg/mL.

B2: HBV23G (antibody, human IgG1, lambda, V domains shown)
VH: EVQVLESGGGLVQPGGSLRLSCAASGFRFSSYAMSWVRQAPGKGLEWVSGISGTGENTYYADSVKGRFTISRDNSKNTLYVQMNSLRAEDTAVYYCAKDAILGSGHPWYFHVWGRGTLVTVSS
VL: SYVLTQPPSVSVAPGQTARMTCGGNNIGSESVHWFQQKPGQAPVLVVYDDSDRPSGIPERFSGSNSGNTATLTISRVEAGDEADYYCQVWDSSSDHAVFGGGTQLTVLG
notes: also called IgG counterpart (HBV23G); human IgG antibody provided in Cerino et al. (2015)
B2 showed an EC50 of 0.03 µg/mL.
